Results reported in PMC10143413.

Assays:
[1] = target: Lactate dehydrogenase, purified from rabbit skeletal muscle (rabbit) (UniProt P13491); test: SPR; Biacore T200, 25 °C; GAPDH, LDH or aldolase A amine-coupled to a CM5 chip, PKM1 as analyte in 0.05 M potassium phosphate buffer pH 7.4, 10 µL/min for 5 min; global fit to the 1:1 binding model
[2] = target: Pyruvate kinase PKM1, purified from rabbit skeletal muscle (rabbit) (UniProt P11974); test: SPR; Biacore T200, 25 °C; PKM1 amine-coupled to a CM5 chip, creatine kinase as analyte in 0.05 M potassium phosphate buffer pH 7.4, 10 µL/min for 5 min; global fit to the 1:1 binding model
Pyruvate kinase PKM1, purified from rabbit skeletal muscle (rabbit), sequence (P11974 whole entry): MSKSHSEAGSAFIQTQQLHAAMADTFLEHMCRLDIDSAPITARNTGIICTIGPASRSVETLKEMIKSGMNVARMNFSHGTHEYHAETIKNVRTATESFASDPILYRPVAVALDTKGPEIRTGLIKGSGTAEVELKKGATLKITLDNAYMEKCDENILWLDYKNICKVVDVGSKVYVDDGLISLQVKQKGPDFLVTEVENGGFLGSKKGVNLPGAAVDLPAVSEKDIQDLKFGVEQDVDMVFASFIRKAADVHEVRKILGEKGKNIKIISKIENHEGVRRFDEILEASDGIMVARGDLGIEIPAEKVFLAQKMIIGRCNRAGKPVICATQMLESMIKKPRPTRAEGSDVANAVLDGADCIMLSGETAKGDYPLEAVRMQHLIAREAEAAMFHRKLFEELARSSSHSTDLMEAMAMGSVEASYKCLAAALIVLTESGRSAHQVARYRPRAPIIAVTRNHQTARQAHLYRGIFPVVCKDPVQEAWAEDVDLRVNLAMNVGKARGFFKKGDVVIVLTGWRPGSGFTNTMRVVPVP

[3] = target: Aldolase A, purified from rabbit skeletal muscle (rabbit) (UniProt P00883); test: SPR; Biacore T200, 25 °C; GAPDH, LDH or aldolase A amine-coupled to a CM5 chip, PKM1 as analyte in 0.05 M potassium phosphate buffer pH 7.4, 10 µL/min for 5 min; global fit to the 1:1 binding model
Aldolase A, purified from rabbit skeletal muscle (rabbit), sequence (P00883 whole entry): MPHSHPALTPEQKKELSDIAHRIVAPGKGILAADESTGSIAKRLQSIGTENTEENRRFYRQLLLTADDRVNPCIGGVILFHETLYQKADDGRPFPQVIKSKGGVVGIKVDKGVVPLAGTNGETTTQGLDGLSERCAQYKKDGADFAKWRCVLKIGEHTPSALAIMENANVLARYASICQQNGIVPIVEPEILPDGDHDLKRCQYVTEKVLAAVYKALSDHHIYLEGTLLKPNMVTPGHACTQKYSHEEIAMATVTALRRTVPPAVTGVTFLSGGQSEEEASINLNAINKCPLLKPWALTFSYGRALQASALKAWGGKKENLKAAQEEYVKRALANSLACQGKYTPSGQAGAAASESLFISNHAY

Pyruvate kinase PKM1, purified from rabbit skeletal muscle, P11974-1 1-531 (enzyme; other documents disagree on this pair), sequence (P11974 whole entry): as the sequence (P11974 whole entry) above
Pyruvate kinase PKM1, purified from rabbit skeletal muscle, sequence (P11974 whole entry): as above

Question: Which Kd [1] does the source give for “Pyruvate kinase PKM1, purified from rabbit skeletal muscle (from UniProt P11974-1 1-531) (enzyme)” here?
Answer: 4800 nM

Question: And the koff [1]?
Answer: 0.00657 s⁻¹

Question: What about the kon [1] of the same substance?
Answer: 1370 M⁻¹ s⁻¹

Question: Which results are given for “Creatine kinase from rabbit muscle (from UniProt P00563 1-381) (enzyme)”?
Answer: Kd [2]: 10.7 nM; koff [2]: 0.000924 s⁻¹; kon [2]: 86400 M⁻¹ s⁻¹

Question: How did the Kd [3] turn out when “Pyruvate kinase PKM1, purified from rabbit skeletal muscle, P11974-1 1-531 (enzyme; other documents disagree on this pair)” was run?
Answer: 1410 nM

Question: What about the koff [3] of the same substance?
Answer: 0.00238 s⁻¹

Question: And the kon [3]?
Answer: 1690 M⁻¹ s⁻¹
